{"source": "the RNAGym collection of RNA variant scans (doi:10.1093/nar/gkz1192)", "parents": {"B1": {"name": "CPEB3 Ribozyme (parent)", "chain": "UAACAGGGGGCCACAGCAGAAGCGUUCACGUCGCAGCCCCUGUCAGAUUCUGGUGAAUCUGCGAAUUCUGCUGUAUAUCUC"}}}
{"variants_of": "B1", "test": "self-cleavage, relative activity (ratio to wild type); higher = more cleavage; in vitro, sequencing", "how_it_was_run": "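Barcoded CPEB3 ribozyme mutants, produced by rounds of error-prone PCR, self-cleaved while being transcribed with T7 RNA polymerase for 5 hours at 37°C and during a subsequent 15 min DNase I step before EDTA was added. Sequencing of template-switched cDNA on Illumina gave cleaved and total reads, and DNA sequencing assigned barcodes to variants. Each variant's relative activity is its cleaved/total read fraction divided by the unmutated ribozyme's fraction, averaged across three batches. A variant needed a minimum of 5 reads.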"}
{"variant": "A28C U54C", "self-cleavage": 0.53}
{"variant": "A28C U54G", "self-cleavage": 0.36}
{"variant": "C27A U41C", "self-cleavage": 0.24}
{"variant": "C27A U41A", "self-cleavage": 0.07}
{"variant": "C27G U74C", "self-cleavage": 0.41}
{"variant": "A28C A56U", "self-cleavage": 0.23}
{"variant": "A28C A56G", "self-cleavage": 0.3}
{"variant": "A28C C79U", "self-cleavage": 0.63}
{"variant": "A28C C71U", "self-cleavage": 0.41}
{"variant": "A28C C71G", "self-cleavage": 0.08}
{"variant": "C27A U69A", "self-cleavage": 0.08}
{"variant": "C27A A77U", "self-cleavage": 0.14}
{"variant": "C27G U54C", "self-cleavage": 0.3}
{"variant": "C27A A56U", "self-cleavage": 0.09}
{"variant": "A28C U66C", "self-cleavage": 0.28}
{"variant": "C27G C50U", "self-cleavage": 0.23}
{"variant": "C27A U76A", "self-cleavage": 0.55}
{"variant": "C27A U76C", "self-cleavage": 0.21}
{"variant": "C27G A47U", "self-cleavage": 0.05}
{"variant": "C27U U74C", "self-cleavage": 0.36}
{"variant": "C27U U74A", "self-cleavage": 0.5}
{"variant": "A28C U43C", "self-cleavage": 0.4}
{"variant": "A28C U43A", "self-cleavage": 0.59}
{"variant": "C27U U31C", "self-cleavage": 0.46}
{"variant": "A28C U31G", "self-cleavage": 0.38}
{"variant": "A28C U31A", "self-cleavage": 0.55}
{"variant": "A28C U31C", "self-cleavage": 0.35}
{"variant": "A28C A47C", "self-cleavage": 0.18}
{"variant": "C27U A35U", "self-cleavage": 0.32}
{"variant": "C27U A35G", "self-cleavage": 0.41}
{"variant": "C27A A57G", "self-cleavage": 0.08}
{"variant": "C27U U43C", "self-cleavage": 0.21}
{"variant": "C27U U43A", "self-cleavage": 0.29}
{"variant": "C27U A57G", "self-cleavage": 0.17}
{"variant": "C27U U66C", "self-cleavage": 0.15}
{"variant": "C27A C44G", "self-cleavage": 0.07}
{"variant": "C27A U67A", "self-cleavage": 0.18}
{"variant": "C27A U67C", "self-cleavage": 0.14}
{"variant": "A28C G55U", "self-cleavage": 0.21}
{"variant": "C27G U72C", "self-cleavage": 0.11}
{"variant": "C27A U51A", "self-cleavage": 0.38}
{"variant": "C27A U51C", "self-cleavage": 0.21}
{"variant": "A28C U67A", "self-cleavage": 0.49}
{"variant": "A28C U67C", "self-cleavage": 0.22}
{"variant": "C27U A77U", "self-cleavage": 0.09}
{"variant": "C27U U58C", "self-cleavage": 0.15}
{"variant": "C27A", "self-cleavage": 0.3}
{"variant": "C27U", "self-cleavage": 0.29}
{"variant": "C27G", "self-cleavage": 0.28}
{"variant": "A28C A77U", "self-cleavage": 0.22}
{"variant": "A28C A77G", "self-cleavage": 0.51}
{"variant": "A28C C32A", "self-cleavage": 0.24}
{"variant": "C27G A64G", "self-cleavage": 0.23}
{"variant": "A28C U41C", "self-cleavage": 0.28}
{"variant": "A28C U41A", "self-cleavage": 0.2}
{"variant": "C27A U54C", "self-cleavage": 0.56}
{"variant": "A28C U72C", "self-cleavage": 0.61}
{"variant": "A28C U72A", "self-cleavage": 0.38}
{"variant": "A28C A45G", "self-cleavage": 0.39}
{"variant": "C27A A64G", "self-cleavage": 0.33}
{"variant": "C27A A64U", "self-cleavage": 0.2}
{"variant": "C27U U76A", "self-cleavage": 0.28}
{"variant": "C27U U76C", "self-cleavage": 0.19}
{"variant": "A28C A57G", "self-cleavage": 0.45}
{"variant": "C27A G46U", "self-cleavage": 0.18}
{"variant": "A28C U58G", "self-cleavage": 0.2}
{"variant": "A28C U58C", "self-cleavage": 0.27}
{"variant": "C27A C37U", "self-cleavage": 0.21}
{"variant": "C27U U54C", "self-cleavage": 0.35}
{"variant": "C27U U54A", "self-cleavage": 0.34}
{"variant": "C27A U58G", "self-cleavage": 0.25}
{"variant": "C27G U69C", "self-cleavage": 0.24}
{"variant": "C27G U69G", "self-cleavage": 0.14}
{"variant": "C27U G30A", "self-cleavage": 0.26}
{"variant": "C27A C81U", "self-cleavage": 0.11}
{"variant": "C27G A56G", "self-cleavage": 0.14}
{"variant": "C27U U80A", "self-cleavage": 0.29}
{"variant": "C27U U80C", "self-cleavage": 0.58}
{"variant": "A28C C81U", "self-cleavage": 0.67}
{"variant": "A28C U51C", "self-cleavage": 0.51}
{"variant": "A28C U51G", "self-cleavage": 0.38}
{"variant": "A28C U51A", "self-cleavage": 0.53}
{"variant": "A28C U48C", "self-cleavage": 0.46}
